Among the data in ChEMBL document CHEMBL1139252, “Inhibition of purple acid phosphatase with alpha-alkoxynaphthylmethylphosphonic acids” (Bioorg Med Chem Lett, 2009) are Km values, retold here.

Common to all, as to details: Phaseolus vulgaris
Substrate in data set [1]: CCCCCCCCOC(c1cccc2ccccc12)P(=O)(O)O
The experiment in a line: (§1) Activity of red kidney bean PAP at pH 6.2.

Substrate in data set [2]: CCCCCCCCCCOC(c1cccc2ccccc12)P(=O)(O)O
The description is as §1.

Substrate in data set [3]: O=P(O)(O)Cc1cccc2ccccc12
The description is as §1.

Substrate in data set [4]: O=P(O)(O)C(O)c1cccc2ccccc12
The description is as §1.

Substrate in data set [5]: CCCCCCOC(c1cccc2ccccc12)P(=O)(O)O
The data set is described as §1.

B1: Fe(3+)-Zn(2+) purple acid phosphatase (Phaseolus vulgaris), P80366 (protein)
chain: MGVVKGLLALALVLNVVVVSNGGKSSNFVRKTNKNRDMPLDSDVFRVPPGYNAPQQVHITQGDLVGRAMIISWVTMDEPGSSAVRYWSEKNGRKRIAKGKMSTYRFFNYSSGFIHHTTIRKLKYNTKYYYEVGLRNTTRRFSFITPPQTGLDVPYTFGLIGDLGQSFDSNTTLSHYELSPKKGQTVLFVGDLSYADRYPNHDNVRWDTWGRFTERSVAYQPWIWTAGNHEIEFAPEINETEPFKPFSYRYHVPYEASQSTSPFWYSIKRASAHIIVLSSYSAYGRGTPQYTWLKKELRKVKRSETPWLIVLMHSPLYNSYNHHFMEGEAMRTKFEAWFVKYKVDVVFAGHVHAYERSERVSNIAYKITNGLCTPVKDQSAPVYITIGDAGNYGVIDSNMIQPQPEYSAFREASFGHGMFDIKNRTHAHFSWNRNQDGVAVEADSVWFFNRHWYPVDDST
The term Km denotes the concentration of substrate that gives half-maximal velocity. On to B1, for which the Km came out at 3.41 mM in data set [1]; 3.1 mM in data set [2]; 5.78 mM in data set [3]; 5.31 mM in data set [4]; 4.28 mM in data set [5].
